According to publication PMC5389651:

Assays:
Experiment in all cases: fluorescence polarization; 150 mM NaCl; 50 mM HEPES pH 7.5, 150 mM NaCl (250 mM in one row), room temperature, 40 min, 9 nM RNA
Nop15 81-220 = biological target: T1, Nop15 81-220 (Saccharomyces cerevisiae, UniProt P53927 81-220)
T1 sequence: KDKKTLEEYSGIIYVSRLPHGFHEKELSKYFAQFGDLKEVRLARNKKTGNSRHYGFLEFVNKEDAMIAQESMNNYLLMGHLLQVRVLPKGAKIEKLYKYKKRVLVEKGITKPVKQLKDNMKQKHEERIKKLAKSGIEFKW

Nop15 81-180 = biological target: T2, Nop15 81-180 (Saccharomyces cerevisiae, UniProt P53927 81-180)
T2 sequence: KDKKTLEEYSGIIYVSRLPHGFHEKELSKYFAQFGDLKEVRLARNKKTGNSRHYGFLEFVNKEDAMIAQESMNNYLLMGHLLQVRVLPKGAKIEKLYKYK

Nop15 = biological target: T3, Nop15 (Saccharomyces cerevisiae, UniProt P53927 1-220)
T3 sequence: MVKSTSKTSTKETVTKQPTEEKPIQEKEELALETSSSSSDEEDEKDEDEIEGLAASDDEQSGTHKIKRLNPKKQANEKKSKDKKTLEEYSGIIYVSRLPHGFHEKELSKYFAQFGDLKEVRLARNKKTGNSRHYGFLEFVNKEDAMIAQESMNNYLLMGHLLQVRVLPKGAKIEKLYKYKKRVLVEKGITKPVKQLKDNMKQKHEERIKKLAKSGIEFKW

Nop15 81-191 = biological target: T4, Nop15 81-191 (Saccharomyces cerevisiae, UniProt P53927 81-191)
T4 sequence: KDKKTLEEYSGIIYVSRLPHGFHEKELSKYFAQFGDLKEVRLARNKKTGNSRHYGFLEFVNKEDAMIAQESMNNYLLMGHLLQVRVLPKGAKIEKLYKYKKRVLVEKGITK

For UGAGUCUAACUCUUUGGAGUAUACUUGAAAUUGCU (structured_RNA) [ITS2 26-60 bulge], which Kd (Nop15 81-220) is on record?
The Kd was 73.6 ± 5.6 nM.

With UGAGUGAUACUCUUUGGAGUAUCACUUGAAAUUGCU (structured_RNA) [ITS2 26-60 paired] as the binder, how does the Kd (Nop15 81-220) read?
Its Kd is 89 ± 8.9 nM.

With UGAGUGAUACUCUUUGGAGUUAACUU (structured_RNA) [ITS2 26-51] as the binder, how does the Kd (Nop15 81-220) read?
Its Kd is 104 ± 3.6 nM.

How did the Kd (Nop15 81-180) turn out when UGAGUGAUACUCUUUGGAGUUAACUUGAAAUUGCU (structured_RNA) [ITS2 26-60 WT] was run?
The Kd was 1050 ± 111 nM.

What about the Kd (Nop15 81-220) of the same binder?
Its Kd is 35.4 ± 1.3 nM.

And the Kd (Nop15)?
The Kd was 293 ± 23 nM.

And the Kd (Nop15 81-191)?
Its Kd is 209 ± 15 nM.

For UGACAGAUACUCUUUGGAGUUAUGUUGAAAUUGCU (structured_RNA) [ITS2 26-60 lower1], which Kd (Nop15 81-220) is on record?
Its Kd is 52.1 ± 3.6 nM.

How did the Kd (Nop15 81-220) turn out when UCUGUGAUACUCUUUGGAGUUAACUUGAAAUUGCU (structured_RNA) [ITS2 26-60 disrupted lower] was run?
Its Kd is 144 ± 16 nM.

How did the Kd (Nop15 81-220) turn out when UUUGUGAUACUCUUUGGAGUUAACAGGAAAUUGCU (structured_RNA) [ITS2 26-60 lower2] was run?
The Kd was 39.3 ± 2.7 nM.

With UGAGUGAUCAUCUUUGGAGUUAACUUGAAAUUGCU (structured_RNA) [ITS2 26-60 disrupted upper] as the binder, how does the Kd (Nop15 81-220) read?
The Kd was 35.5 ± 3.2 nM.

Which Kd (Nop15 81-220) does the source give for UGAGUGAUCAACUUUGGUUGUAACUUGAAAUUGCU (structured_RNA) [ITS2 26-60 upper] here?
The Kd was 44.9 ± 4.3 nM.
